# Assay results reported in paper PMC3197488.
# Tests used:
# [1] = target: T1, Pae chi-psi complex (DNA polymerase III) (Pseudomonas aeruginosa PAO1) (UniProt O68823); test: analytical ultracentrifugation (sedimentation velocity); conditions: Low salt: 5 mM NaCl, 5 mM KPi pH 7.4, 0.87 M glycerol, 0.5 mM DTT; high salt: 0.3 M NaCl, 20 mM KPi pH 7.4, 0.5 mM DTT; AUC at 20 C; EMSA incubated 10 min at …
# T1 sequence: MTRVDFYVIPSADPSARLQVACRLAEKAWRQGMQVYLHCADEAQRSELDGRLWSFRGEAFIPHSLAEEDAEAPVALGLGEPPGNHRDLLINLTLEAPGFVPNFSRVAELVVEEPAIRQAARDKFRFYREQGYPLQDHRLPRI
# [2] = target: EcoSSB;Eco chi-psi complex (Escherichia coli;Escherichia coli LK111lambda) (UniProt P0AGE0+P28905+P28632); test: as above; conditions: Low salt: 5 mM NaCl, 5 mM KPi pH 7.4, 0.87 M glycerol, 0.5 mM DTT; high salt: 0.3 M NaCl, 20 mM KPi pH 7.4, 0.5 mM DTT; AUC at 20 C; EMSA incubated 10 min at …
# [3] = target: PaeSSB;Pae chi-psi complex (DNA polymerase III) (Pseudomonas aeruginosa;Pseudomonas aeruginosa PAO1) (UniProt P40947+O68823); test: as above; conditions: Low salt: 5 mM NaCl, 5 mM KPi pH 7.4, 0.87 M glycerol, 0.5 mM DTT; high salt: 0.3 M NaCl, 20 mM KPi pH 7.4, 0.5 mM DTT; AUC at 20 C; EMSA incubated 10 min at …
# [4] = target: P. aeruginosa single-stranded DNA-binding protein (P. aeruginosa) (UniProt P40947); test: AUC; sedimentation velocity; χψ titrated to 0.35 μM cognate SSB saturated with 12.3 μM poly(dT), low salt buffer, 22000 rpm, 20°C, 230 nm; model of n χψ per SSB tetramer
# [5] = target: P. aeruginosa single-stranded DNA-binding protein (P. aeruginosa) (UniProt P40947); test: AUC; sedimentation velocity; χψ titrated to 6 μM SSB in high salt buffer, 50000 rpm, 20°C, 280 nm; free χψ from c(s); model of n independent χψ per SSB tetramer
# Sequence of P. aeruginosa single-stranded DNA-binding protein (P. aeruginosa) (P40947 whole entry): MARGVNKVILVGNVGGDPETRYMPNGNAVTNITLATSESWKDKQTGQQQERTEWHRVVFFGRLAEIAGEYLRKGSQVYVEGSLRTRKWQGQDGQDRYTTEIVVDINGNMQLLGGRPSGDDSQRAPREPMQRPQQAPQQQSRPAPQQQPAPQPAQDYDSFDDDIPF
# Sequence of PaeSSB;Pae chi-psi complex (DNA polymerase III) (Pseudomonas aeruginosa;Pseudomonas aeruginosa PAO1) (P40947 2-165, one chain of several): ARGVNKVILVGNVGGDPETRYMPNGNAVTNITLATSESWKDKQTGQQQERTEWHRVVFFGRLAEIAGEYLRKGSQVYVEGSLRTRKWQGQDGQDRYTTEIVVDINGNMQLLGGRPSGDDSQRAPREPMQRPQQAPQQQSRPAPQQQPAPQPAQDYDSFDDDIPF
# Sequence of EcoSSB;Eco chi-psi complex (Escherichia coli;Escherichia coli LK111lambda) (P0AGE0 2-178, chain 1 of 3): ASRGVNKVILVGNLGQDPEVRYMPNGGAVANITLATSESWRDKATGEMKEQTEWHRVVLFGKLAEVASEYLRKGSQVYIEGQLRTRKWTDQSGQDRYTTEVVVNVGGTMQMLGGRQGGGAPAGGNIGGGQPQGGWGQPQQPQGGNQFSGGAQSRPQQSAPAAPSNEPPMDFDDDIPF
# Sequence of EcoSSB;Eco chi-psi complex (Escherichia coli;Escherichia coli LK111lambda) (P28905 whole entry, chain 2 of 3): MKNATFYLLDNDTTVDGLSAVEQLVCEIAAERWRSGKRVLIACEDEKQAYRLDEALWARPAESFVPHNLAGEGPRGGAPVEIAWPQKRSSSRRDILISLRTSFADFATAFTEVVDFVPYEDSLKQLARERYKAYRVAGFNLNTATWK
# Sequence of EcoSSB;Eco chi-psi complex (Escherichia coli;Escherichia coli LK111lambda) (P28632 whole entry, chain 3 of 3): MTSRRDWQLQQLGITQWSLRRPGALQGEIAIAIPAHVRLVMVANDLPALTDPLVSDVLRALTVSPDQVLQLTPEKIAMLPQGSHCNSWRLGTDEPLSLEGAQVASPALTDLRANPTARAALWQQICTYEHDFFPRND
Ka [4] [M⁻¹],stoichiometry N (χψ per SSB tetramer) [4],Ka [5] [M⁻¹],stoichiometry N (χψ per SSB tetramer) [5],Substance,Ka [1] [M⁻¹],Ka [2] [M⁻¹],Ka [3] [M⁻¹]
–,–,–,–,TTTTTTTTTTTTTTTTTTTTTTTTTTTTTTTTTTTTTTTTTTTTTTTTTTTTTTTTTTTTTTTTTTTTTTTTTTTTTTTTTTTTTTTTTTTTTTTTTTTTTTTTTTTTTTTTTTTTTTTTTTTTTTTTTTTTTTTTTTTTTTTTTTTTTTTTTTTTTTTTTTTTTTTTTTTTTTTTTTTTTTTTTTTTTTTTTTTTTTTTTTTTTTTTTTTTTTTTTTTTTTTTTTTTTTTTTTTTTTTTTTTTTTTTTTTTTTTTTTTTTTTTTTTTTTTTTTTTTTTTTTTTTTTTTTTTTTTTTTTT [poly(dT)],500000,6e+06,> 5e+07
> 5e+07,2.2,130000,2.2,P. aeruginosa χψ complex (from UniProt O68823 1-142),–,–,–
